The values that follow come from publication PMC3526269, “Demethylation initiated by ROS1 glycosylase involves random sliding along DNA”.

The target of data set [1] is T1, FL-ROS1 (Arabidopsis, UniProt Q9SJQ6 1-1393).
T1 sequence: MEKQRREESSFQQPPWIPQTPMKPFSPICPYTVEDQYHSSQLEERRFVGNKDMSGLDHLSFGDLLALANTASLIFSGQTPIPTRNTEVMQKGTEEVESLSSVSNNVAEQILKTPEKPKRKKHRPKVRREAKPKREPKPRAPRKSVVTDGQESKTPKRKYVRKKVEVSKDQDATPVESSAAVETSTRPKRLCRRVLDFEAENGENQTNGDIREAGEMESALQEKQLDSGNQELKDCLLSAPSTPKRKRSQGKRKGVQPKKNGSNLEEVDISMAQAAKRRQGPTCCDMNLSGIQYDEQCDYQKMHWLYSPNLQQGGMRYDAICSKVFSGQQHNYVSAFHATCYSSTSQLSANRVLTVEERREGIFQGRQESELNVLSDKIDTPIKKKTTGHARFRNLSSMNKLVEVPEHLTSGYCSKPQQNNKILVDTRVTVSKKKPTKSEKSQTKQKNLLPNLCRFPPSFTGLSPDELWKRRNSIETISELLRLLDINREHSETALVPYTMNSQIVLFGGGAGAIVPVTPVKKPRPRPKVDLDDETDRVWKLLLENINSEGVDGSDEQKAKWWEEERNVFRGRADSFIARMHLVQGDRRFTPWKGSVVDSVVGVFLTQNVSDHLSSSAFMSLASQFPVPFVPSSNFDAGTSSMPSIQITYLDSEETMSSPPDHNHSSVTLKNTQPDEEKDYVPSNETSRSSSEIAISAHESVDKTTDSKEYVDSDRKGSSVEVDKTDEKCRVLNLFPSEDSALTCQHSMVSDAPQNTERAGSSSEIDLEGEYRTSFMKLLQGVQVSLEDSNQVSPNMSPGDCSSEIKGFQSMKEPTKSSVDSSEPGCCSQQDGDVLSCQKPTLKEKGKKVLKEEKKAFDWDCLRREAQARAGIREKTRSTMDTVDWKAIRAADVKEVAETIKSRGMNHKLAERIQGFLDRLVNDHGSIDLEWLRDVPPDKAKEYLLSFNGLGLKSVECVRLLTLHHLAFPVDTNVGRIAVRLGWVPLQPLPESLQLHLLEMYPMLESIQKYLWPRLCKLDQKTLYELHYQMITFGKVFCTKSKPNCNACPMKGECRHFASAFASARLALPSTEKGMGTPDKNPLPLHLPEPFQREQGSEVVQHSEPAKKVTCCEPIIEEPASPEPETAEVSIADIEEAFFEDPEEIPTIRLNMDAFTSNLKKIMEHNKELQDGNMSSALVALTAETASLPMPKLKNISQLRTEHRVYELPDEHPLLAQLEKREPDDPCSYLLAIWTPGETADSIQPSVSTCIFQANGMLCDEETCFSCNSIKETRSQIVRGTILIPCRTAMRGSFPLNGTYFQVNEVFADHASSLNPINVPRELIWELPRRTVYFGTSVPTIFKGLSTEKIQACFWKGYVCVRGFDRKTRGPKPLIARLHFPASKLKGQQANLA
Briefly: EMSA; dissociates when chased with unlabelled S; EMSA: 10 nM (so in the source) Tris-HCl pH 8.0, 1 mM DTT, 10 ug/ml BSA, 1 mM EDTA, 25 C, 60 min; 100 nM probe; 0.2% agarose, 1x TAE. To be noted: protein: recombinant; tags: N-terminal His; label: 5'-fluorescein upper strand. Background: Mobility shift assays separate free from complexed probe on a gel.

Data set [2] concerns the target T2, NΔ294-ROS1 (Arabidopsis, UniProt Q9SJQ6 295-1393, del1-294).
T2 sequence: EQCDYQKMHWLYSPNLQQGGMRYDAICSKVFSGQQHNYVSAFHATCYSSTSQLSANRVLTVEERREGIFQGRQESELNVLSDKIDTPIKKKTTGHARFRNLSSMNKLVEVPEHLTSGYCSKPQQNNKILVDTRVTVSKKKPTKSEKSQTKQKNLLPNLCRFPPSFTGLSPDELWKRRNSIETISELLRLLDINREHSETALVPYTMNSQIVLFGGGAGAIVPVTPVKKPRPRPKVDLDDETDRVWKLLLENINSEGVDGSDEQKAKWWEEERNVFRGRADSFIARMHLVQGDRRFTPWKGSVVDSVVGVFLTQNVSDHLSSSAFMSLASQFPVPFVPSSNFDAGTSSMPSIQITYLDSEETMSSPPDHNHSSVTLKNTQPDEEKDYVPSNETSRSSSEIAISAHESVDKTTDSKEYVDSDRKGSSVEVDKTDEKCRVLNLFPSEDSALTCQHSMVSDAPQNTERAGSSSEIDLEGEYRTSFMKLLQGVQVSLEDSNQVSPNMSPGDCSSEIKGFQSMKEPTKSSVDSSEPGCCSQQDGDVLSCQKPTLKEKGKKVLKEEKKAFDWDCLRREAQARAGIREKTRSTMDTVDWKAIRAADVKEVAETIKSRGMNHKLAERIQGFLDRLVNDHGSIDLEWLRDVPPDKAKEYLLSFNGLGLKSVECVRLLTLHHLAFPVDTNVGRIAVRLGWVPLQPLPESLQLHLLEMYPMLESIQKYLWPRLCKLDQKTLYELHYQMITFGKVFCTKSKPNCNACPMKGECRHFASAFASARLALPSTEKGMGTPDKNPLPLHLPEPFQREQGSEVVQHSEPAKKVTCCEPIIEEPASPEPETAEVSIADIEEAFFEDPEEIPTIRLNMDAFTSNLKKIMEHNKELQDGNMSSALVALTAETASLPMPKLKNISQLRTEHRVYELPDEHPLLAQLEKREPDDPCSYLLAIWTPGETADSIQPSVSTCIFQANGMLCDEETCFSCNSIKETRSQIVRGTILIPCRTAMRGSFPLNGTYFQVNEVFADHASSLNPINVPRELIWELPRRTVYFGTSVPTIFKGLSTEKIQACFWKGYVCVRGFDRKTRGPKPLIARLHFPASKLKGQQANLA
The data set is described as follows: EMSA; dissociates when chased with unlabelled S; needs higher protein than SL1-2; EMSA: 10 nM (so in the source) Tris-HCl pH 8.0, 1 mM DTT, 10 ug/ml BSA, 1 mM EDTA, 25 C, 60 min; 100 nM probe; 0.2% agarose, 1x TAE. To be noted: protein: recombinant; tags: N-terminal His; label: 5'-fluorescein upper strand.

Data set [3] deals with T2, NΔ294-ROS1. The data set is described as follows: EMSA; easier to dissociate by competitor S than FL-ROS1; EMSA: 10 nM (so in the source) Tris-HCl pH 8.0, 1 mM DTT, 10 ug/ml BSA, 1 mM EDTA, 25 C, 60 min; 100 nM probe; 0.2% agarose, 1x TAE. To be noted: protein: recombinant, tags: N-terminal His, label: 5'-fluorescein upper strand, four-way junction obstacle.
In data set [4] the target is T1, FL-ROS1. Briefly: EMSA; low dissociation with competitor S, slightly higher than SL1-2; EMSA: 10 nM (so in the source) Tris-HCl pH 8.0, 1 mM DTT, 10 ug/ml BSA, 1 mM EDTA, 25 C, 60 min; 100 nM probe; 0.2% agarose, 1x TAE. To be noted: protein: recombinant, tags: N-terminal His, label: 5'-fluorescein upper strand, four-way junction obstacle.
Data set [5] addresses T2, NΔ294-ROS1. The data set is described as follows: EMSA; binds at lower concentration than to S; displaced at high competitor S; EMSA: 10 nM (so in the source) Tris-HCl pH 8.0, 1 mM DTT, 10 ug/ml BSA, 1 mM EDTA, 25 C, 60 min; 100 nM probe; 0.2% agarose, 1x TAE. To be noted: protein: recombinant; tags: N-terminal His; label: 5'-fluorescein upper strand; four-way junction obstacles on both sides.

In data set [6] the target is T1, FL-ROS1. Briefly: EMSA; remains bound when chased with unlabelled S; affinity not higher than for S; EMSA: 10 nM (so in the source) Tris-HCl pH 8.0, 1 mM DTT, 10 ug/ml BSA, 1 mM EDTA, 25 C, 60 min; 100 nM probe; 0.2% agarose, 1x TAE. To be noted: protein: recombinant; tags: N-terminal His; label: 5'-fluorescein upper strand; four-way junction obstacles on both sides.

The target of data set [7] is T1, FL-ROS1. The data set is described as follows: EMSA; dissociates when chased with mismatched S; EMSA: 10 nM (so in the source) Tris-HCl pH 8.0, 1 mM DTT, 10 ug/ml BSA, 1 mM EDTA, 25 C, 60 min; 100 nM probe; 0.2% agarose, 1x TAE. To be noted: protein: recombinant; tags: N-terminal His; label: 5'-fluorescein upper strand; central T:G mispair.
For data set [8], the target named is T1, FL-ROS1. The data set is described as follows: EMSA; remains bound when chased with mismatched S; affinity not higher than for S; EMSA: 10 nM (so in the source) Tris-HCl pH 8.0, 1 mM DTT, 10 ug/ml BSA, 1 mM EDTA, 25 C, 60 min; 100 nM probe; 0.2% agarose, 1x TAE. To be noted: protein: recombinant; tags: N-terminal His; label: 5'-fluorescein upper strand; four-way junction obstacles on both sides; central T:G mispair.

The target of data set [9] is T1, FL-ROS1. The data set is described as follows: EMSA; chase with competitor; similar to methylated SL1-2; EMSA: 10 nM (so in the source) Tris-HCl pH 8.0, 1 mM DTT, 10 ug/ml BSA, 1 mM EDTA, 25 C, 60 min; 100 nM probe; 0.2% agarose, 1x TAE. To be noted: protein: recombinant; tags: N-terminal His; label: 5'-fluorescein upper strand; four-way junction obstacles on both sides.

Data set [10] has as its target T1, FL-ROS1. Briefly: EMSA; chase with competitor; similar to methylated S; EMSA: 10 nM (so in the source) Tris-HCl pH 8.0, 1 mM DTT, 10 ug/ml BSA, 1 mM EDTA, 25 C, 60 min; 100 nM probe; 0.2% agarose, 1x TAE. To be noted: protein: recombinant; tags: N-terminal His; label: 5'-fluorescein upper strand.

B1: S (5-meC:G) (dsDNA)
DNA 1: TCACGCGGGATCAATGTGTTCTTTCAGCTCCGGTCACGCTGACCAGGAATACCTCACTACC
DNA 2: GGTAGTGAGGTATTCCTGGTCAGCGTGACCGGAGCTGAAAGAACACATTGATCCCGCGTGA
modifications: one central 5-meC in CG context
Take B1: the binding result in [1] and in data set [2] was “binds” each time.

B2: SL2 (5-meC:G) (dsDNA)
DNA 1: TCACGCGGGATCAATGTGTTCTTTCAGCTCCGGTCACGCTGACCAGGAATACCTCACTACC
DNA 2: GGTAGTGAGGTATTCCTGGTCAGCGTGACCGGAGCTGAAAGAACACCCGTAAGGGTCCGTAAGGACATTGATCCCGCGTGA
modifications: one central 5-meC in CG context
In the case of B2, the binding result in data set [3] (right) and in data set [4] (right) was “binds” each time.

B3: SL1 (5-meC:G) (dsDNA)
DNA 1: TCACGCGGGATCAATGTGTTCTTTCAGCTCCGGTCACGCTGACCAGGAATACCTCACTACC
DNA 2: GGTAGTGAGGTATTCCCCCGTAAGGGTCCGTAAGGATGGTCAGCGTGACCGGAGCTGAAAGAACACATTGATCCCGCGTGA
modifications: one central 5-meC in CG context
As for B3, the binding result in data set [3] (left) and in data set [4] (left) was “binds” throughout.

B4: SL1-2 (5-meC:G) (dsDNA)
DNA 1: TCACGCGGGATCAATGTGTTCTTTCAGCTCCGGTCACGCTGACCAGGAATACCTCACTACC
DNA 2: GGTAGTGAGGTATTCCCCCGTAAGGGTCCGTAAGGATGGTCAGCGTGACCGGAGCTGAAAGAACACCCGTAAGGGTCCGTAAGGACATTGATCCCGCGTGA
modifications: one central 5-meC in CG context
Turning to B4, the binding result in [5] and in data set [6] was “binds” throughout.

B5: S (T:G) (dsDNA)
DNA 1: TCACGCGGGATCAATGTGTTCTTTCAGCTCTGGTCACGCTGACCAGGAATACCTCACTACC
DNA 2: GGTAGTGAGGTATTCCTGGTCAGCGTGACCGGAGCTGAAAGAACACATTGATCCCGCGTGA
Regarding B5, the binding result in data set [7] is on record as “binds”.

B6: SL1-2 (T:G) (dsDNA)
DNA 1: TCACGCGGGATCAATGTGTTCTTTCAGCTCTGGTCACGCTGACCAGGAATACCTCACTACC
DNA 2: GGTAGTGAGGTATTCCCCCGTAAGGGTCCGTAAGGATGGTCAGCGTGACCGGAGCTGAAAGAACACCCGTAAGGGTCCGTAAGGACATTGATCCCGCGTGA
Regarding B6, the binding result in data set [8] is “binds”.

B7: SL1-2 (homoduplex, no target) (dsDNA)
DNA 1: TCACGCGGGATCAATGTGTTCTTTCAGCTCCGGTCACGCTGACCAGGAATACCTCACTACC
DNA 2: GGTAGTGAGGTATTCCCCCGTAAGGGTCCGTAAGGATGGTCAGCGTGACCGGAGCTGAAAGAACACCCGTAAGGGTCCGTAAGGACATTGATCCCGCGTGA
As to B7, the binding result in [9] was “binds”.

B8: S (homoduplex, no target) (dsDNA)
DNA 1: TCACGCGGGATCAATGTGTTCTTTCAGCTCCGGTCACGCTGACCAGGAATACCTCACTACC
DNA 2: GGTAGTGAGGTATTCCTGGTCAGCGTGACCGGAGCTGAAAGAACACATTGATCCCGCGTGA
On to B8, for which the binding result in data set [10] was “binds”.
